Measurements: patent publication EP1516629B1
Numbering of substitutions follows the chain as printed. Names and notes keep the numbering of the source.

T1: rhesus CD11a (rhesus) (UniProt H9Z8N3)
T1 sequence: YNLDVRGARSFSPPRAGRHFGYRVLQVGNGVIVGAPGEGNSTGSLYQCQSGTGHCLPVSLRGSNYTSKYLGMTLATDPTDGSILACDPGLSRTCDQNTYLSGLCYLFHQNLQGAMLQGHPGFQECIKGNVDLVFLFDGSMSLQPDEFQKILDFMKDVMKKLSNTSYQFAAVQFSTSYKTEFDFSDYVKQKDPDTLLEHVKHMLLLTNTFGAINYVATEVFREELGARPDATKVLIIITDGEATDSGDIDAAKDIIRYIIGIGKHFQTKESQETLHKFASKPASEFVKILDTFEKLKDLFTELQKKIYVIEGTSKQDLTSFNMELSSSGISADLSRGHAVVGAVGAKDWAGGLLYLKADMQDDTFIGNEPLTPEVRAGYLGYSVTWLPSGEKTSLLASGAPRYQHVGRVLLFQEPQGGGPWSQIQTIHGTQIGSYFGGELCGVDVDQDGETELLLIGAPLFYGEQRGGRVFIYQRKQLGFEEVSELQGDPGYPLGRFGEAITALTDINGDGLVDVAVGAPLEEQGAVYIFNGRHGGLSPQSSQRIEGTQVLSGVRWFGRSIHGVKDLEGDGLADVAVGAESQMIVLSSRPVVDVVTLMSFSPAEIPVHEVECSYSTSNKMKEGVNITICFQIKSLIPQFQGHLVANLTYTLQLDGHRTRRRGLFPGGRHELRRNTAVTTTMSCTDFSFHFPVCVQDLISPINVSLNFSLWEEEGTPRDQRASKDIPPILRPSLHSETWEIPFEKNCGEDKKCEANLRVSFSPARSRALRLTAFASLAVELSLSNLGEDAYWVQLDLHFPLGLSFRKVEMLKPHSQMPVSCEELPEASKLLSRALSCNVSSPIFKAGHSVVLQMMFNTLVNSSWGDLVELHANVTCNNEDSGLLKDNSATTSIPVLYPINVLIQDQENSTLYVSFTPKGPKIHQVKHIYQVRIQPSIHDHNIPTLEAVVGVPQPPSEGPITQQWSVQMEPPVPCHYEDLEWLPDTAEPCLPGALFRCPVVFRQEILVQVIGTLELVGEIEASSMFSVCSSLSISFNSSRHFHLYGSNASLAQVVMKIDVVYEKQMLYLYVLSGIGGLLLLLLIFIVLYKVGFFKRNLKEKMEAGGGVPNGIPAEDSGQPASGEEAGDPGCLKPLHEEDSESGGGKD

T2: human CD11a (human) (UniProt P20701)
T2 sequence (looked up): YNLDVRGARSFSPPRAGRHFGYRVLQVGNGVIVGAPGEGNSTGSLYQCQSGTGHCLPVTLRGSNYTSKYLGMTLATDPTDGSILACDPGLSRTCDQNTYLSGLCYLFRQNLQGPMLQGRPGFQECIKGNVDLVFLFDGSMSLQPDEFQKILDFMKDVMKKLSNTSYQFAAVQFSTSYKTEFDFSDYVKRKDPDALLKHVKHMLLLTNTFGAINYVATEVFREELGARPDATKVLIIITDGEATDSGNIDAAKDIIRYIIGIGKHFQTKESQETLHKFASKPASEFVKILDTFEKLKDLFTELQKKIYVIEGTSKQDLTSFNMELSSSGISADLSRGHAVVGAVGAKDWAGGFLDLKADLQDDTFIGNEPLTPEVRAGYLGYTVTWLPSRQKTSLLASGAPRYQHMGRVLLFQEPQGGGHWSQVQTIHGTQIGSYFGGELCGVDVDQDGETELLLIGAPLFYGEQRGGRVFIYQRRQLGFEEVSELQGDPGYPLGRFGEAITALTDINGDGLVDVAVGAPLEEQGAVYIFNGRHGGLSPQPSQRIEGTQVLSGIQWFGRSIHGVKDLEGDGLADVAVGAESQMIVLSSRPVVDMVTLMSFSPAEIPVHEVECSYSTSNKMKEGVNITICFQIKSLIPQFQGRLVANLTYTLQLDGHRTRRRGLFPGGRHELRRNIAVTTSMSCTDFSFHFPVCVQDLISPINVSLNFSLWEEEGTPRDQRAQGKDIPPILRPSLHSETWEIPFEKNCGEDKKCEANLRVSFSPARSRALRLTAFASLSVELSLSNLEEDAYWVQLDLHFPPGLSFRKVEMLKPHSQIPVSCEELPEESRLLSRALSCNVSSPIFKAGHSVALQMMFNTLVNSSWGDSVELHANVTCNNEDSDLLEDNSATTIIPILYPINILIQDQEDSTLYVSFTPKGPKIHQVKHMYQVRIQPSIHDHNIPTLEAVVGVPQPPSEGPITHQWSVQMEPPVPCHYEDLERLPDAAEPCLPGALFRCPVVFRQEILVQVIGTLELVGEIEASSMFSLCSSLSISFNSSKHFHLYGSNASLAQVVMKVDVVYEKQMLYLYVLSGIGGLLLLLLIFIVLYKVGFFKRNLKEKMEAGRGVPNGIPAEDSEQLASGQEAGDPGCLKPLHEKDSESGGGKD

B1: L1 variant IgG1 (antibody, V domains shown)
VH: EVQLVESGGGLVQPGGSLRLSCAASGYSFTGHWMNWVRQAPGKGLEWVGMIHPSDSETRYNQKFKDRFTISVDKSKNTLYLQMNSLRAEDTAVYYCARGIYFYGTTYFDYWGQGTLVTVSS
VL: DIQMTQSPSSLSASVGDRVTITCRASAAIAAYLAWYQQKPGKAPKLLIYSGSTLQSGVPSRFSGSGSGTDFTLTISSLQPEDFATYYCQQHNEYPLTFGQGTKVEIKR
B2: H2C4 variant IgG1 (antibody, V domains shown)
VH: B1 VH with H52A, S54A, D55N, E57A
VL: DIQMTQSPSSLSASVGDRVTITCRASKTISKYLAWYQQKPGKAPKLLIYSGSTLQSGVPSRFSGSGSGTDFTLTISSLQPEDFATYYCQQHNEYPLTFGQGTKVEIK
B3: AspH54Lys variant IgG1 (antibody, V domains shown)
VH: B1 VH with D55K
VL: B2 VL
B4: H2C14 variant IgG1 (antibody, V domains shown)
VH: B1 VH with H52A, S54A, D55S, E57A
VL: B2 VL
B5: SerL50Ala variant IgG1 (antibody, V domains shown)
VH: B1 VH
VL: B1 VL with A27K, A28T, A30S, A31K, S50A
B6: SerL52Ala variant IgG1 (antibody, V domains shown)
VH: B1 VH
VL: B1 VL with A27K, A28T, A30S, A31K, S52A
B7: H2C6 variant IgG1 (antibody, V domains shown)
VH: B1 VH with H52A, S54A, D55N, E57Q
VL: B2 VL
B8: AspH54Ser variant IgG1 (antibody, V domains shown)
VH: B1 VH with D55S
VL: B2 VL
B9: LysH73Ala variant IgG1 (antibody, V domains shown)
VH: B1 VH with K74A
VL: B2 VL
B10: TyrH97Ala variant IgG1 (antibody, V domains shown)
VH: B1 VH with Y101A
VL: B2 VL
B11: TyrH100cAla variant IgG1 (antibody, V domains shown)
VH: B1 VH with Y107A
VL: B2 VL
B12: HisH32Ala variant IgG1 (antibody, V domains shown)
VH: B1 VH with H32A
VL: B2 VL
B13: TyrH99Ala variant IgG1 (antibody, V domains shown)
VH: B1 VH with Y103A
VL: B2 VL
B14: H3B variant IgG1 (antibody, V domains shown)
VH: B1 VH with T105A, T106A, Y107A
VL: B2 VL
B15: humanized MHM24 F(ab)-3 (Fab, V domains shown)
VH: B1 VH with Y27F, F68A, K74N
VL: B2 VL with T53S, Q55E
B16: L2 variant IgG1 (antibody, V domains shown)
VH: B1 VH
VL: B1 VL with A27K, A28T, A30S, A31K, S50A, S52A, T53A
B17: humanized MHM24 F(ab)-5 (Fab, V domains shown)
VH: B1 VH with Y27F, K76S, N77S
VL: B2 VL with T53S, Q55E
B18: SerH28Ala variant IgG1 (antibody, V domains shown)
VH: B1 VH with S28A
VL: B2 VL
B19: ThrH100aAla variant IgG1 (antibody, V domains shown)
VH: B1 VH with T105A
VL: B2 VL
B20: humanized MHM24 F(ab)-8 (Fab, V domains shown)
VH: B1 VH
VL: B1 VL with A27K, A28T, A30S, A31K
B21: humanized MHM24 F(ab)-4 (Fab, V domains shown)
VH: B1 VH with Y27F, V72R, K74N
VL: B2 VL with T53S, Q55E
B22: H1 variant IgG1 (antibody, V domains shown)
VH: B1 VH with S28A, T30A, H32A
VL: B2 VL
B23: H2C11 variant IgG1 (antibody, V domains shown)
VH: B1 VH with H52A, S54A, D55S, E57N
VL: B2 VL
B24: ThrH100bAla variant IgG1 (antibody, V domains shown)
VH: B1 VH with T106A
VL: B2 VL
B25: TyrL94Ala variant IgG1 (antibody, V domains shown)
VH: B1 VH
VL: B1 VL with A27K, A28T, A30S, A31K, Y94A
B26: HisH52Ser variant IgG1 (antibody, V domains shown)
VH: B1 VH with H52S
VL: B2 VL
B27: AspH54Glu variant IgG1 (antibody, V domains shown)
VH: B1 VH with D55E
VL: B2 VL
B28: SerH55Asn variant IgG1 (antibody, V domains shown)
VH: B1 VH with S56N
VL: B2 VL

Target: T1, rhesus CD11a (rhesus)
Experiment: binding to rhesus peripheral blood lymphocytes

Var.EC50/HuIgG1 EC50	Variant EC50/HulgG1 EC50	Binder
1		B1
0.38		B2
	3.8	B3
0.021		B4
2.7		B5
13.3		B6
0.21		B7
	0.9	B8

Target: T2, human CD11a (human)
Experiment: FACScan, Jurkat cells

Var.EC50/HuIgG1 EC50	EC50 F(ab)/EC50 F(ab)-2	fold improvement in binding over F(ab)-2 [fold]	fold reduction in binding against F(ab)-2 [fold]	Variant EC50/HulgG1 EC50	Binder
1.3					B1
5.2					B9
10.9					B10
7.6					B11
2.3					B12
1.4					B13
1.2					B5
34.7					B14
	1.2				B15
1.1					B6
1.1					B16
	0.043	23			B17
6.9					B18
2.3					B19
	0.004				B20
	2.9		3		B21
5.9					B22
24.9					B23
1.4					B24
11.8					B25
5					B26
				16	B27
2.1					B28
